The values below come from publication PMC3691460 (The Journal of Cell Biology, 2013).

For experiment [1], the system named is αIIbβ3 headpiece ligand binding site. Description: Occupancy of ligand binding site by soaked RGD peptide. The note with it: 10 mM GRGDSP, Mg/Ca (5 mM Mg/1 mM Ca), 24 h, closed headpiece crystals.
Experiment [2] addresses αIIbβ3 integrin headpiece (UniProt P08514). Kind of experiment: crystal structure.
Experiment [3] concerns α4β7 headpiece. The settings on record: EM; ref Yu et al., 2012; cited from earlier work.
The target in experiment [4] is T1, αIIb subunit β-propeller domain (UniProt P08514).
T1 sequence: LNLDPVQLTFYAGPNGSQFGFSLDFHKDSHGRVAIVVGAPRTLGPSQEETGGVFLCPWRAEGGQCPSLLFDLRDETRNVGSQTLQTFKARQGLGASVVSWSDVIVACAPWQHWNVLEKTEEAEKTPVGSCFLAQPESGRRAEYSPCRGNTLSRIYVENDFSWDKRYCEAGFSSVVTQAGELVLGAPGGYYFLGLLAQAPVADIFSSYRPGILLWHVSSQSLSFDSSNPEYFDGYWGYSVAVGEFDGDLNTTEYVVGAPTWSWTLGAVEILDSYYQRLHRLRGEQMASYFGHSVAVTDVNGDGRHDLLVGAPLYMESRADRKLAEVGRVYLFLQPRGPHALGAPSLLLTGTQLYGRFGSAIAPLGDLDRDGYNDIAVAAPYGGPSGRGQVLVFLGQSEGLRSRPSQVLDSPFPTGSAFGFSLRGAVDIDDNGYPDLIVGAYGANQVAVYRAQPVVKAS
Description: crystal structure.

For experiment [5], the target named is T2, β3 subunit PSI, hybrid, βI, and I-EGF-1 domains (UniProt P05106).
T2 sequence: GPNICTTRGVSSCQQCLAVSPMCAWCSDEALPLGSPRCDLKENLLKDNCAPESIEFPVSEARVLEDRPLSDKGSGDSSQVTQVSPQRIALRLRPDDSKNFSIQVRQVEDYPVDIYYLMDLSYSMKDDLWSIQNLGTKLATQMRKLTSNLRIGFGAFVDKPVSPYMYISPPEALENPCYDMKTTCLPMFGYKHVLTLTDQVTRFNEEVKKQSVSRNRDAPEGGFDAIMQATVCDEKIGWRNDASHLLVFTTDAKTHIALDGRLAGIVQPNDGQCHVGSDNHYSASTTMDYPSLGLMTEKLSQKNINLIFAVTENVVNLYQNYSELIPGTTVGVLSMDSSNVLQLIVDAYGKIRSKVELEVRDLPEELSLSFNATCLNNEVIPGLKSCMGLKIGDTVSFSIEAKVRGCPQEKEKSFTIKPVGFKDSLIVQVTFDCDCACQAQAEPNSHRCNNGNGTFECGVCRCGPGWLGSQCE
Description: crystal structure.

The target of experiment [6] is T3, αIIbβ3 integrin headpiece (UniProt P08514;P05106).
T3 sequence 1: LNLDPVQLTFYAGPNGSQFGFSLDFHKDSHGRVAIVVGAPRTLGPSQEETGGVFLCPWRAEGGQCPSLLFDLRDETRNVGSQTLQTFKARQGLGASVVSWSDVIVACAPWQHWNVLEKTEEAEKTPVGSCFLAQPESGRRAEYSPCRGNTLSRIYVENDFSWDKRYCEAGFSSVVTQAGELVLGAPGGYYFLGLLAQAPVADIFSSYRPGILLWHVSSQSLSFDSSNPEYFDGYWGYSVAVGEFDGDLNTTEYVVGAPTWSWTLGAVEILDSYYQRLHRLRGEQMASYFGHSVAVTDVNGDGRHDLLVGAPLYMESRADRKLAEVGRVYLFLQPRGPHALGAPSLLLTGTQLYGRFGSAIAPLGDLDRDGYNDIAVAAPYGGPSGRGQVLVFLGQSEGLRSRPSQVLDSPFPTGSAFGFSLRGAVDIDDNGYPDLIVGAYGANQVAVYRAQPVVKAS
T3 sequence 2: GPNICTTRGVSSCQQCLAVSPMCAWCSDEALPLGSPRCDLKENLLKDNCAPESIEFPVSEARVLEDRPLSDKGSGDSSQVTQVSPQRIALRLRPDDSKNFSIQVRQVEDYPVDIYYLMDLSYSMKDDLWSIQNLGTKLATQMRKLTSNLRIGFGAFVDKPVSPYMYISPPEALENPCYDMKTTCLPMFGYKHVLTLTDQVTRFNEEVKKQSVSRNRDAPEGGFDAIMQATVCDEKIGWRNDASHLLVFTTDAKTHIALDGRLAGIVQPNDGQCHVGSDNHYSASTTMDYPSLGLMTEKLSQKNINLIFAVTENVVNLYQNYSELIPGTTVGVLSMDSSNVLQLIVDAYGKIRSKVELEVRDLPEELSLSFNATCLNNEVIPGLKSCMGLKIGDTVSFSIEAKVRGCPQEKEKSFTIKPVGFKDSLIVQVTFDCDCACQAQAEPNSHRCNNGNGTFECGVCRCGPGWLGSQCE
Description: crystal structure.

In the case of `N=C(N)NCCC[C@H](NC(=O)CN)C(=O)NCC(=O)N[C@@H](CC(=O)O)C(=O)N[C@@H](CO)C(=O)N1CCC[C@H]1C(=O)O` [GRGDSP], in experiment [1], the “Bound ligand / occupation of the ligand binding site” value was “diffraction revealed bound peptide”.

In experiment [2], GRGDSP peptide yielded a Kd of 0.34 to 10 mM and a fold higher affinity of the open than of the closed headpiece of over 200 fold.

B1: MAdCAM-1: ligand binding to the α4β7 headpiece (protein, UniProt Q13477 19-382, looked up)
Mucosal addressin cell …: QSLQVKPLQVEPPEPVVAVALGASRQLTCRLACADRGASVQWRGLDTSLGAVQSDTGRSVLTVRNASLSAAGTRVCVGSCGGRTFQHTVQLLVYAFPDQLTVSPAALVPGDPEVACTAHKVTPVDPNALSFSLLVGGQELEGAQALGPEVQEEEEEPQGDEDVLFRVTERWRLPPLGTPVPPALYCQATMRLPGLELSHRQAIPVLHSPTSPEPPDTTSPESPDTTSPESPDTTSQEPPDTTSPEPPDKTSPEPAPQQGSTHTPRSPGSTRTRRPEISQAGPTQGEVIPTGSSKPAGDQLPAALWTSSAVLGLLLLALPTYHLWKRCRHLAEDDTHPPASLRLLPQVSAWAGLRGTGQVGISPS
On to B1, for which the “State of the headpiece upon binding” value in experiment [3] is “either an intermediate or open state”.

Consider GRGDSP [GRGDSP peptide], for which the binding result in experiment [4] and in experiment [5] was “binds” in each case.

For the molecule GRGDSPK [GRGDSPK peptide], in experiment [6], the binding result is reported as “binds”.

For orientation: Kd means the free concentration of one partner at which half of the binding sites on the other are occupied at equilibrium, for simple one-to-one binding. A low value points to tighter binding.
